Results reported in the supplement of paper PMC9112550, “Optimization of the antimicrobial peptide Bac7 by deep mutational scanning” (BMC Biology, 2022).

Test system: Escherichia coli TOP10
Assay: shrunken log2 fold change of peptide-encoding DNA abundance (4.5 h post-induction vs induction); higher = less antimicrobial activity (less host growth inhibition)
Details: time post-induction: 4.5 h; library: site-saturation at positions 5, 18, 19, 20
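Further: peptides expressed intracellularly from a pBAD plasmid library in pooled LB shake-flask culture, induced with 0.3% L-arabinose, DNA abundance read by NGS, three biological replicates, DESeq2 with apeglm shrinkage.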

Sequence	shrunken log2 fold change
RRIRQRPPRLPRPRPRPNYRPRP	0.0444
RRIRQRPPRLPRPRPRPPCMPRP	-0.0968
RRIRQRPPRLPRPRPRPPCTPRP	-0.0301
RRIRQRPPRLPRPRPRPPDLPRP	0.404
RRIRQRPPRLPRPRPRPPEDPRP	0.0255
RRIRQRPPRLPRPRPRPPESPRP	0.528
RRIRQRPPRLPRPRPRPPFNPRP	-0.159
RRIRQRPPRLPRPRPRPPHYPRP	0.37
RRIRQRPPRLPRPRPRPPIDPRP	0.00417
RRIRQRPPRLPRPRPRPPILPRP	-0.13
RRIRQRPPRLPRPRPRPPKPPRP	-0.0724
RRIRQRPPRLPRPRPRPPLLPRP	-0.114
RRIRQRPPRLPRPRPRPPLMPRP	0.179
RRIRQRPPRLPRPRPRPPLRPRP	0.49
RRIRQRPPRLPRPRPRPPMYPRP	-0.269
RRIRQRPPRLPRPRPRPPPDPRP	0.701
RRIRQRPPRLPRPRPRPPPNPRP	0.508
RRIRQRPPRLPRPRPRPPPWPRP	0.981
RRIRQRPPRLPRPRPRPPQTPRP	0.33
RRIRQRPPRLPRPRPRPPRQPRP	0.101
RRIRQRPPRLPRPRPRPPYHPRP	-0.208
RRIRQRPPRLPRPRPRPPYRPRP	0.158
RRIRQRPPRLPRPRPRPQASPRP	0.0433
RRIRQRPPRLPRPRPRPQCHPRP	-0.0344
RRIRQRPPRLPRPRPRPQCSPRP	-0.203

Sequence	shrunken log2 fold change
RRIRQRPPRLPRPRPRPQIEPRP	-0.0133
RRIRQRPPRLPRPRPRPQKFPRP	-0.283
RRIRQRPPRLPRPRPRPQKNPRP	-0.297
RRIRQRPPRLPRPRPRPQKQPRP	0.057
RRIRQRPPRLPRPRPRPQKYPRP	-0.517
RRIRQRPPRLPRPRPRPQLCPRP	-0.0247
RRIRQRPPRLPRPRPRPQLFPRP	0.0846
RRIRQRPPRLPRPRPRPQLPPRP	-0.23
RRIRQRPPRLPRPRPRPQMCPRP	0.109
RRIRQRPPRLPRPRPRPQMGPRP	-0.553
RRIRQRPPRLPRPRPRPQNFPRP	-0.0918
RRIRQRPPRLPRPRPRPQNHPRP	-0.481
RRIRQRPPRLPRPRPRPQPKPRP	0.0658
RRIRQRPPRLPRPRPRPQQDPRP	0.206
RRIRQRPPRLPRPRPRPQRMPRP	-0.0094
RRIRQRPPRLPRPRPRPQSGPRP	-0.0474
RRIRQRPPRLPRPRPRPQTCPRP	0.0348
RRIRQRPPRLPRPRPRPQVFPRP	0.131
RRIRQRPPRLPRPRPRPQWAPRP	0.142
RRIRQRPPRLPRPRPRPQWCPRP	0.142
RRIRQRPPRLPRPRPRPQWKPRP	-0.0075
RRIRQRPPRLPRPRPRPQWVPRP	0.0126
RRIRQRPPRLPRPRPRPRAWPRP	0.123
RRIRQRPPRLPRPRPRPRCGPRP	0.236
RRIRQRPPRLPRPRPRPREGPRP	0.151

Sequence	shrunken log2 fold change
RRIRQRPPRLPRPRPRPRFKPRP	-0.128
RRIRQRPPRLPRPRPRPRGDPRP	0.346
RRIRQRPPRLPRPRPRPRGSPRP	0.0908
RRIRQRPPRLPRPRPRPRIAPRP	0.111
RRIRQRPPRLPRPRPRPRIIPRP	0.00299
RRIRQRPPRLPRPRPRPRIMPRP	-0.0396
RRIRQRPPRLPRPRPRPRIYPRP	-0.159
RRIRQRPPRLPRPRPRPRKDPRP	-0.16
RRIRQRPPRLPRPRPRPRKVPRP	-0.00271
RRIRQRPPRLPRPRPRPRKYPRP	-0.2
RRIRQRPPRLPRPRPRPRLIPRP	-0.076
RRIRQRPPRLPRPRPRPRNGPRP	-0.0342
RRIRQRPPRLPRPRPRPRPQPRP	0.262
RRIRQRPPRLPRPRPRPRPYPRP	-0.357
RRIRQRPPRLPRPRPRPRQCPRP	0.152
RRIRQRPPRLPRPRPRPRRIPRP	-0.27
RRIRQRPPRLPRPRPRPRSIPRP	-0.0928
RRIRQRPPRLPRPRPRPRSKPRP	0.185
RRIRQRPPRLPRPRPRPRSMPRP	0.33
RRIRQRPPRLPRPRPRPRTDPRP	0.00812
RRIRQRPPRLPRPRPRPRTVPRP	0.349
RRIRQRPPRLPRPRPRPRWYPRP	-0.172
RRIRQRPPRLPRPRPRPSAFPRP	-0.247
RRIRQRPPRLPRPRPRPSCAPRP	-0.0664
RRIRQRPPRLPRPRPRPSCDPRP	0.0694

Sequence	shrunken log2 fold change
RRIRQRPPRLPRPRPRPSDHPRP	-0.298
RRIRQRPPRLPRPRPRPSDLPRP	-0.333
RRIRQRPPRLPRPRPRPSEDPRP	-0.0593
RRIRQRPPRLPRPRPRPSIMPRP	-0.0993
RRIRQRPPRLPRPRPRPSLAPRP	0.404
RRIRQRPPRLPRPRPRPSMLPRP	-0.522
RRIRQRPPRLPRPRPRPSPQPRP	0.548
RRIRQRPPRLPRPRPRPSQCPRP	-0.0618
RRIRQRPPRLPRPRPRPSSIPRP	-0.0146
RRIRQRPPRLPRPRPRPSSKPRP	-0.623
RRIRQRPPRLPRPRPRPSTCPRP	-0.0113
RRIRQRPPRLPRPRPRPSTYPRP	-0.884
RRIRQRPPRLPRPRPRPSVMPRP	-0.283
RRIRQRPPRLPRPRPRPSWEPRP	-0.141
RRIRQRPPRLPRPRPRPSWHPRP	-0.155
RRIRQRPPRLPRPRPRPSYKPRP	-0.54
RRIRQRPPRLPRPRPRPSYPPRP	-0.857
RRIRQRPPRLPRPRPRPTAGPRP	0.144
RRIRQRPPRLPRPRPRPTCHPRP	-0.552
RRIRQRPPRLPRPRPRPTCWPRP	0.0954
RRIRQRPPRLPRPRPRPTDFPRP	-0.122
RRIRQRPPRLPRPRPRPTEIPRP	-0.223
RRIRQRPPRLPRPRPRPTELPRP	0.124
RRIRQRPPRLPRPRPRPTFTPRP	-0.222
RRIRQRPPRLPRPRPRPTGNPRP	-0.0862

Sequence	shrunken log2 fold change
RRIRQRPPRLPRPRPRPTHGPRP	0.0759
RRIRQRPPRLPRPRPRPTIAPRP	0.0737
RRIRQRPPRLPRPRPRPTIMPRP	-0.127
RRIRQRPPRLPRPRPRPTIVPRP	-0.119
RRIRQRPPRLPRPRPRPTKSPRP	0.00581
RRIRQRPPRLPRPRPRPTLEPRP	0.0818
RRIRQRPPRLPRPRPRPTLFPRP	0.12
RRIRQRPPRLPRPRPRPTLLPRP	-0.0944
RRIRQRPPRLPRPRPRPTLTPRP	0.0596
RRIRQRPPRLPRPRPRPTMDPRP	0.0884
RRIRQRPPRLPRPRPRPTPGPRP	0.417
RRIRQRPPRLPRPRPRPTQYPRP	-0.0342
RRIRQRPPRLPRPRPRPTRGPRP	0.287
RRIRQRPPRLPRPRPRPTSMPRP	-0.049
RRIRQRPPRLPRPRPRPTVDPRP	0.349
RRIRQRPPRLPRPRPRPTWIPRP	-0.057
RRIRQRPPRLPRPRPRPTWLPRP	0.295
RRIRQRPPRLPRPRPRPTYCPRP	-0.0981
RRIRQRPPRLPRPRPRPTYKPRP	-0.549
RRIRQRPPRLPRPRPRPTYVPRP	-0.161
RRIRQRPPRLPRPRPRPVAVPRP	0.257
RRIRQRPPRLPRPRPRPVCTPRP	0.0864
RRIRQRPPRLPRPRPRPVDFPRP	0.0196
RRIRQRPPRLPRPRPRPVFTPRP	-0.217
RRIRQRPPRLPRPRPRPVGNPRP	-0.108

Sequence	shrunken log2 fold change
RRIRQRPPRLPRPRPRPVGTPRP	-0.0913
RRIRQRPPRLPRPRPRPVHEPRP	0.536
RRIRQRPPRLPRPRPRPVHHPRP	0.04
RRIRQRPPRLPRPRPRPVHTPRP	-0.168
RRIRQRPPRLPRPRPRPVIAPRP	0.248
RRIRQRPPRLPRPRPRPVIDPRP	-0.016
RRIRQRPPRLPRPRPRPVIGPRP	-0.0941
RRIRQRPPRLPRPRPRPVITPRP	-0.414
RRIRQRPPRLPRPRPRPVKNPRP	0.142
RRIRQRPPRLPRPRPRPVLAPRP	0.232
RRIRQRPPRLPRPRPRPVMPPRP	0.0623
RRIRQRPPRLPRPRPRPVNPPRP	-0.085
RRIRQRPPRLPRPRPRPVPCPRP	0.0476
RRIRQRPPRLPRPRPRPVQFPRP	-0.0919
RRIRQRPPRLPRPRPRPVQPPRP	0.0898
RRIRQRPPRLPRPRPRPVTCPRP	0.0138
RRIRQRPPRLPRPRPRPVVAPRP	0.174
RRIRQRPPRLPRPRPRPVVFPRP	1.25
RRIRQRPPRLPRPRPRPVVYPRP	0.12
RRIRQRPPRLPRPRPRPVWWPRP	0.015
RRIRQRPPRLPRPRPRPVYQPRP	-0.022
RRIRQRPPRLPRPRPRPWFFPRP	-0.0396
RRIRQRPPRLPRPRPRPWFIPRP	-0.302
RRIRQRPPRLPRPRPRPWGAPRP	0.351
RRIRQRPPRLPRPRPRPWGNPRP	0.0303
